According to article PMC1894825:

Test system: Lsr2 (Mycobacterium tuberculosis H37Rv)
Test: EMSA

Substance | Kd [µM]
16S rRNA gene 200-bp amplicon | 1
PiniBAC 227-bp amplicon | 1
